Assay results from publication PMC5064372.

Key:
[1] = target: catalytically inactive mouse neutrophil elastase (Ser195Ala) with a C-terminal cysteine tag, fluorescently labelled (mouse); experiment: MST; AAT serially diluted (titrated), 5 nM fluorescently labelled inactive NE, in 7.5% plasma pool from individuals with low FEV1 (<=50%, n = 12); storage buffer (20 mM Na2HPO4, 300 mM NaCl pH 7.4) with Tween 20, 22 °C, 2 h incubation; global fit of four measurements
[2] = target: catalytically inactive mouse neutrophil elastase (Ser195Ala) with a C-terminal cysteine tag, fluorescently labelled (mouse); experiment: MST; AAT serially diluted (titrated), 5 nM fluorescently labelled inactive NE, in 7.5% plasma pool from individuals with high FEV1 (>=80%, n = 8); storage buffer (20 mM Na2HPO4, 300 mM NaCl pH 7.4) with Tween 20, 22 °C, 2 h incubation; global fit of four measurements

Kd [1]: 1300 nM
Kd [2]: 500 nM
Substance: recombinant Z-variant alpha-1-antitrypsin (Glu342Lys) with three stabilizing mutations (Met374Ile, Ser381Ala, Lys387Arg) on the M1(Ala213) background (from UniProt P01009 25-418) (natural protein)
